Measured values reported in patent publication US7052908B2, “Androgen receptor coactivators” (University of Rochester, priority 1998, dated 2006).

How the values were obtained:
[1] = target: T1, progesterone receptor (PR) (Homo sapiens, UniProt P06401); test: Steroid receptor transactivation, MMTV-CAT reporter in DU145 cells; format: cell-based; details: DU145, relative to AR
T1 construct: expressed in transfected cells; host or cells: DU145
T1 sequence (P06401 1-933): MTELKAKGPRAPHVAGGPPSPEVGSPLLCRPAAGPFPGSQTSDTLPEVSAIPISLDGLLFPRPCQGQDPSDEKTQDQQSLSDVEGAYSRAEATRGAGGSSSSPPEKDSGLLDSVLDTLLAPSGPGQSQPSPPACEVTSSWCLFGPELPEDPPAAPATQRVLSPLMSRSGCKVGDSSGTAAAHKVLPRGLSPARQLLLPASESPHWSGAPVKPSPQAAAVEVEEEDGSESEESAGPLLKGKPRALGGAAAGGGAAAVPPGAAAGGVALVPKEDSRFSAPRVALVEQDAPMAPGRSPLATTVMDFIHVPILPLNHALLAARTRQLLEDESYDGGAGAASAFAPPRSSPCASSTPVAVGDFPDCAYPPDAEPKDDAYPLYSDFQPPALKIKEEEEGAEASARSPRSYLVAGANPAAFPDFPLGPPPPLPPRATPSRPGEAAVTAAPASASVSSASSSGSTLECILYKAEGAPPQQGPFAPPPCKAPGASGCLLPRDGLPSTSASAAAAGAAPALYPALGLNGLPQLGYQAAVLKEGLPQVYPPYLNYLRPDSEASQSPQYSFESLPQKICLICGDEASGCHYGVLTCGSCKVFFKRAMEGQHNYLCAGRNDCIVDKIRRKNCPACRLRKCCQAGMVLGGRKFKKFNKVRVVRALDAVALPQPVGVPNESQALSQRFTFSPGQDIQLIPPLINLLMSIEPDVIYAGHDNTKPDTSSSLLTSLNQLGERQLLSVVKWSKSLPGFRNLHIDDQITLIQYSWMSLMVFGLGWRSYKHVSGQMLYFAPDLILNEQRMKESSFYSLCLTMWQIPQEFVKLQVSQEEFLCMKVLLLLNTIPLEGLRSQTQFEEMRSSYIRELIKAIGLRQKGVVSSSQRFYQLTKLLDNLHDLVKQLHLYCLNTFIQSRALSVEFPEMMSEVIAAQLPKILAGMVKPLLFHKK

estrogen receptor (ER) = target: T2, estrogen receptor (ER) (Homo sapiens, UniProt P03372); test: Steroid receptor transactivation, ERE-CAT reporter in DU145 cells; format: cell-based; details: DU145
T2 construct: expressed in transfected cells; host or cells: DU145
T2 sequence (P03372 1-595): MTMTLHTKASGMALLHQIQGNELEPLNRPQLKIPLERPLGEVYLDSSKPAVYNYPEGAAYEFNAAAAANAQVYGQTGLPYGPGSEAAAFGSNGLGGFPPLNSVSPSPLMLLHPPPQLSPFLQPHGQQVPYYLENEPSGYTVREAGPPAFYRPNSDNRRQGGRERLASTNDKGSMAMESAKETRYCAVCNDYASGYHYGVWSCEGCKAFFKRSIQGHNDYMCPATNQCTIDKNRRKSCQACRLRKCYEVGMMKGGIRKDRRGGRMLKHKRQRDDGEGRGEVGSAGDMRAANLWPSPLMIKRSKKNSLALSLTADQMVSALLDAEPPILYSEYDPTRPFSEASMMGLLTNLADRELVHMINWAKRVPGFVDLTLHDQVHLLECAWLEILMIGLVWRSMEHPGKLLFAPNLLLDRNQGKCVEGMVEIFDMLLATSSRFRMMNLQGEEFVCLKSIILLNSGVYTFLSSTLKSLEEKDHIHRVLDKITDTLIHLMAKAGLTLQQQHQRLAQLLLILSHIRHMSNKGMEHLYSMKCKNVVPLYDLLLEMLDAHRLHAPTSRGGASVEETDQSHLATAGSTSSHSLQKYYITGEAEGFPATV

enhancement of PR transcriptional activation by ARA55 [1]: to a lesser degree
effect of ARA55 on ER transcriptional activation (estrogen receptor (ER)): marginal effect
B1: ARA55: androgen receptor coactivator, 444 aa, SEQ ID NO:4, 91% homology with mouse hic5 (protein)
chain: MPRSGAPKERPAEPLTPPPSYGHQPTGQSGESSGASGDKDHLYSTVCKPRSPKPAAPAAPPFSSSSGVLGTGLCELDRLLQELNATQFNITDEIMSQFPSSKVASGEQKEDQSEDKKRPSLPSSPSPGLPKASATSATLELDRLMASLPDFRVQNHLPASGPTQPPVVSSTNEGSPSPPEPTAKGSLDTMLGLLQSDLSRRGVPTQAKGLCGSCNKPIAGQVVTALGRAWHPEHFVCGGCSTALGGSSFFEKDGAPFCPECYFERFSPRCGFCNQPIRHKMVTALGTHWHPEHFCCVSCGEPFGDEGFHEREGRPYCRRDFLQLFAPRCQGCQGPILDNYISALSLLWHPDCFVCRECFAPFSGGSFFEHEGRPLCENHFHARRGSLCPTCGLPVTGRCVSALGRRFHPDHFACTFCLRPLTKGSFQERAGKPYCQPCFLKLFG
modifications: Homo sapien
